Assay results from article PMC4216189 (Biochemistry, 2014).
Blank lines part the entries; values can stand above or below the binder they belong to.

Target: T1, Escherichia coli lipoyl synthase, hexahistidine-tagged (Escherichia coli, UniProt P60716 1-321)
T1 sequence (looked up): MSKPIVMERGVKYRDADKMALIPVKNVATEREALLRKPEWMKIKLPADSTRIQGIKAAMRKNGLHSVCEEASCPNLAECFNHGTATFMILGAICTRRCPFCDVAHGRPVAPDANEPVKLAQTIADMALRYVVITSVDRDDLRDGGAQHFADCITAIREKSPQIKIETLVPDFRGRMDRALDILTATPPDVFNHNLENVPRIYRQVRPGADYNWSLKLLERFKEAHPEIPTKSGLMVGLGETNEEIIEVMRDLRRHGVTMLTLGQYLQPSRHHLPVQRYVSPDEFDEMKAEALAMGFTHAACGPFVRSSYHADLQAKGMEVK
Assay: co-elution on anion-exchange chromatography

binding result: binds
B1: [8,8,8-2H3]-octanoyl-H protein of Escherichia coli (natural protein, UniProt P0A6T9 1-129, looked up)
chain: MSNVPAELKYSKEHEWLRKEADGTYTVGITEHAQELLGDMVFVDLPEVGATVSAGDDCAVAESVKAASDIYAPVSGEIVAVNDALSDSPELVNSEPYAGGWIFKIKASDESELESLLDATAYEALLEDE
modifications: N6-([8,8,8-2H3]-octanoyl)-lysine (position not given)

binding result: binds
B2: octanoyl-H protein of Escherichia coli (unlabeled) (natural protein, UniProt P0A6T9 1-129, looked up)
chain: B1 chain
modifications: N6-octanoyl-lysine (position not given)
